The data set can be described thus: label from the status in PepcDB records.

On to “MYLLDTTSTAAISIYALLLTAYRSMQVLYARPIDGPAVAAEPVETRPLPAVDVIVPSFNEDPGILSACLASIADQDYPGELRVYVVDDGSRNREAIVRVRAFYSRDPRFSFILLPENVGKRKAQIAAIGQSSGDLVLNVDSDSTIAFDVVSKLASKMRDPEVGAVMGQLTASNSGDTWLTKLIDMEYWLACNEERAAQSRFGAVMCCCGPCAMYRRSALASLLDQYETQLFRGKPSDFGEDRHLTILMLKAGFRTEYVPDAIVATVVPDTLKPYLRQQLRWARSTFRDTFLALPLLRGLSPFLAFDAVGQNIGQLLLALSVVTGLAHLIMTATVPWWTILIIACMTIIRCSVVALHARQLRFLGFVLHTPINLFLILPLKAYALCTLSNSDWLSRYSAPEVPVSGGKQTPIQTSGRVTPDCTCSGE”, for which the protein production result was “failed”.

For the sequence “MYLLRINIEGTINYGLYKYLYPALKAAEGKKSIAGLILVFNSGGGDAASSQLIHDLVKKIRKKKPVYSLALGICASGAYWIASASTKIYAIDTSLIGSIGVISIRPNVKKLMEKIGVDVMVYKSGKYKDMTSPFSEPNEEEKSVYQRLLDDIFEKFKRSVAEDRGIPSEKIDEIANGMVYSAKMAADNGLIDRIANYDDLVSDLTKEVGKRLKVKEFYIRKPLLQRLLGILEHHHHHH”, the protein production result was “failed”. As to “MYLLTFKGLIYSAGGTWLNKGNLMYFGSLIFLFLVVFLIFSEQRTEKTSGLEKVSVQEAKEMIEKGDVFVLDVRTPDEFNSSHIKGATLIPLSNAFGSNLSSESLLKAHIDEVPKEKILVYCRTGRRSDTAGRMLVNAGYTQVYNMVGGIIAWTDAGYPVVSSEDTESEGSHN”, the protein production result is “failed”. With “MYNLLLTILLVLSGLLEIAIFMQPQKNPSSNVFDSSGSEALFERTKARGFEAFMQRFTAVLVFFWLAIALVLAILSSK” the entry was “failed”; with “MYNSRESILSNPVQSAIVSISFFSVVAIIIIAIYPEILSPQRKMERIDDFVVIIATLTFLFIGLSLINSFGTDNMEYTYEALNNFFQGKNPYEMVYGPHTVQPTYTLSGGVASNFIYPPFSFIVYIPIYLLIKAFNLPGYVLNAENVIFAVILGLLLYKIGKEKDDPFALFPVIFLYIITAVSIPPFYGVPIVIASTFLALSYVKKNYLGGISLALAISFSQLSWLAFPFLLIYRIRSDNVGKQFLRSSYFLSFLITLSIINIPFLAWNPVRFIGNIITLNTQLIPVGQIGLTVISYSGLYPMEPWFFTIVFGVVAIFLTYLYYQLFDYLKEIIWLFPLIISWFLWRTLTEYFFMWIPLIFTSLFRTQYKLPTIKLNFKKKIVLPLLIIFVFLASLSVYAHESYVASNPLKIDEVYTLQNTPPYTALIIKVQNTKNEPVNITLVRVSIPNNLNMVWNSTETVIPPNSSALVFAYASNSLEAINSTPFTVQVYSEYYFATYTVNSTQ”, “failed”. In the case of “MYPEKEYEELIKKIKTKVKEELNKNSKANVSGLNLDTAKRLADAAVKKAGEMGVNVAVAVMDIHGNMILFNRMDDSVLAAIEVAPKKAYTSAALRIPSSEVLKGGFDKLVETMEGKIAAFGGGLPVRSNGIFLGALGVSGGTSEEDIKIAEYAVNAVFG” it was “failed”. In the case of “MYQTIEGFLQSWTYETESTQKMLDVLTDESLSQEIAPGHWTLGRVAWHIVTAIPVILSGTGLKFEGETKDYPVPTSAKTIADGYRKVNTAFVEALQSEWTDKDLTTINDFFGRPMPNSIFLMTLINHQNHHRGQMTVLMRQAGLTVPGVYGPAKEEWATAGMEAPKM” it was “not failed”. In the case of “MYQVIIFALLFAGISSGFITFRIMGMRMAPHFGVLILALIATAANIMSGNVTLNYVAVALQVLTGISAYTQFLPVLRDSFQTAPLYACHLSTVTVAAVLAAASVPL”, the protein production entry is reported as “failed”.

Regarding “MYSGAYSFVQISTAAYRISITRLEKTMESLQQQVAQLLEQQPTLLPAAMAEQLNVTEFDIVHALPEEMVAVVDGSHAQTILESLPEWGPVTTIMTIAGSIFEVKAPFPKGKVARGYYNLMGRDGELHGHLKLENISHVALVSKPFMGRESHYFGFFTAQGENAFKIYLGRDEKRELIPEQVARFKAMQQQHKQLEHHHHHH”, the protein production entry is “not failed”.

Consider “MYSGFTREKSDLRTEDVEITKEPFTLLIMGIEDYATDGQNGRTDSLMFATVNPKTQKISLMSIPRDSRVPIVGKNKEDKINAAHAYGGEEMAIKTVEGFLKVPVDHYVKIDFQGFKGIVDAVGGVTVDVPFDFWERSDVDYYKKIQFKQGQQELNGEEALAYVRMRKQDPNGDYGRAARQRQLLAAVAQKLNSTSTVFKIKDLTSVVGKYIKTDIPISDGLALYKKLSGFDPSTIQTLKLEGEDKKIGGIYYFLPDPNGVEAVRNEIKKELGLEHHHHHH”, for which the protein production entry was “not failed”.

Turning to “MYSMSMGERGEAPDGMSGVIRYESLLAARTMAQRQPKKSAGCADSVESFRNPKPKPRFDKDVFCKTSAIRRLRSDFLHGDGSRGTGRHRAVARGPDGVRLHPAGRQRPNLPVASSASRTRHDQGSGRMSVVSAIIGTAERVPLPDVVIRAAIQRLCSRTATRISALGADDEAAFAGRMMLRPIAEDVDAANAGHDEAPASFIAQALGPNRKYSSCFYTTDATTLREAEEEALRQTVAHAGLADGQTILELGCGWGSLSLWTARQFPHAKVTAVSNSQGQRAYVEEQARLRGLLNLRVVTADMNVFAPEGQFDRIVSVEMFEHVMNWRKLMTRLRSWLAPEGRLFMHIVTHRSGSHLFDRANREDWIAQHVFTGGLMASHHLVRQFDDIFTVEKEWCWSGTHYQRTANDWLANFDAHRDAIEASLRNVHGDETALWMRRWRWFFLATSGLFGYAGGTEWGVSHYRMKAADEGVS”, the protein production entry is on record as “failed”. On to “MYSPIPPSLFQQIQPAYCGQEFILLRDNEEYKEIIVQAGRTYEISLMVESENSYIAWDFSLTQGKITMVIIFKTKYVTVNHLIAFSDD”, for which the protein production entry was “failed”. As for “MYTKTKASISALLILITITLSSCSGTKNKDIYSRKNSNAAHTVATIGYDNKTYVSLKEAFKSVGGKCTLNGEGAIASKGKDIIKVSASSSTAYLNSSKIAMSANPKLKNNDIYVPMDFLNQVMDARITYSNGKLNIQTELPLKYTKAFNIKYLKGGIKKITDGNNKTVILVPKNKTVPAEYKNETVITYPVNNVLVSSATQGSLLRPLDEIKSIKTVTLKENEWEIDEIKSLLNDNKITYIGDTTSPDFEKISSSKPDVAILYGGSYGLNNMMKKFDELHINYTSDNEYLEEDPLGRLEWIKFLSAFYDKEDKAENYFNQQVSKVMATENKVSSLKKPKVAFGMVDNGKVYIPAKNSYAAKMVDMAGGDYIFKDLNNKSGYITLEDFYSKSKDADVLIYSSSKEYTPSLKSMLSAAPILKTIKPVKNKKVWCFGKDYYQAIDKTDEIIEDLASIFHPESFKGYKIKHYSHY”, the protein production result is listed as “failed”.

In the case of “MYTNRWEGLDEFVAVAECGQFTAAALRLGVSSSHVSRQIVRLEERLQTRLLYRSTRKVALTEAGQTFLHHCQRLQDGREEALRAVGDLASEPKGLLRMTCAVAYGERFITPLVTRFMELYPQLRVDIELSNDTLDLVHEGMDLAIRLGRLQDSRMVATRLAPRQMYLCASPSYLERYGRPHSLSELSRHNCLIGGSDTWQLQQNGREFSQRVQGNWRCNSGQAVLDAALQGVGLCQLPDYYVQKHLKEGALVSLLEAHQPPNTAVWALYPQQRHLSPKVRKLVDYLKEGLAMQDEYRQ”, the protein production result is reported as “failed”. For the sequence “MYVLIGGAGLIGQQLARQVLDQGHTVAVIDQDPQVCKMVRDRLGAMAFEGSAVNTDILLEAGICRADAVAAVLRQDALNLALVTLACHYGVSRIISRISQQDFIEPMRLAGAHHIISTVDLVVSTMVNAIECPQVESMLHFEQGQIEVFKLTLDSQSPVIGRSVAAIAQDRNFPSSSLIIGYQSHPQADLVIPSGNTVLEANATVLLATKPGLVQSLVNFLMPSLFSPLEHHHHHH”, the protein production result is given as “failed”. In the case of “MYVLVSSPFHYKQFTKFTIFSVFAGFSFIQNELTTYWFFILLFRQEITLFGLGVIARPLVRVFVSYLMGYISDKYDRAKLFYITRGISGILLFPLTFAFIYHSIPLIFGIYYIRTIIVELSNNVGYVAYYAVVPEQVRAKAIFYIRIISMASRVASGAVWYLIYQLISAYDLFLAGILGLIGLALLKGFNIGGGSKRVKLSTAIDFFRKDERIRGIILLYSVTDGLTYSINYLLPLLIIVYHGTEEIYSLSQTVLYGILVIASFVMTRIKDPIKIVSTYILSGFLFYLVLLYPSPYVLLISVLLYGFGSGIVENYVMATIKQSVGDEFLGSVLGLDVLVTSSVEIFLILLGQYLITINVVYYIIVGIVGMSLVLISWLLHPKLKDIKL”, the protein production result was “failed”. Consider “MYVTRRLSEYQKKPSELKLLPPEGPNSGIMVIQDEESQATCCFGSCYEGRLKGLPFPQNVKLNAAYTSGGGEHQTTHLTPVVFIPVLDQPLSSNLYYVLQRRGKHTGKASASATEEERVSSCFCFSYIPDAKPQEADPYDIYQQFEIHQRRSSSRYYSATSVASDGVPPNYLKRKDWWVSYSTSHDFGLRDDAKGINTKLRLDSELTSLGKSIEIGKWYVPFIFVMEGDVKDQMNKSTFYSVTLQQRWEEVFFCENIGNEHFEVVVDVDVETESVKLEGQETNLREDSGDGVVWFSVLRDEKDDKKIGLGSVVVERMKWEEERFGWLNEAGERSNIKRSERFEGGSSHWKSYRCYVLIESFELTRMDGSLVLTYEFRHVDKLKSKWD”, for which the protein production entry is listed as “failed”. Regarding “NDNSPRFEKSVYEADLAENSAPGTPILQLRAADLDVGVNGQIEYVFGAATESVRRLLRLDETSGWLSVLHRIDREEVNQLRFTVMARDRGQPPKTDKATVVLNIKDENDNVP”, the protein production result was “not failed”.

Consider “NENPDKPTDDVNYNMNEPRLASTLRGGLIIEGNVEQRLKPLQIDFYSQMTVDGGGWGTKNYIQDDEWNNLVWEEYLKQIASINIVIRSLTEKDKDAYANTIAFARIWRVYVHTLAADKFGPMPFPAYEIVEANPPYKSLKDIYDEYFRELDAAINGFNDSAQPIFSDAGIDLIYKNDVSKWKRFANSLRLRLAVRLTEVDQEKCIAEANAAISSPAGLISDKADNAYMPPKADGSWGQDYNYTMFQITWSGPICMSKSVEKLVTNIGGVAWPQGVVNQTSGVAVSSVHPEKVDPRAPKIFQPGIENGDWKGLVYGPKAEEANTGIYQSKQCAELGFIIKDGYPYKSRPYDLFLSEEVHFLKAELYARGFIAGDAKSEYEAGVRASFATWGVTSEVDDYLTSTEKNEAGTSARYDDQQGAGNTALEKIITQKYIAGIPDLAQEGWNDKRRLNLPRLDVAVYRDQAVYNNNDKDILKSANFIKRMRYPTKESLINATEYEKGKSMLGGKGDIVSTPLWWDKNSNYCTSSK”, for which the protein production result is on record as “not failed”.

With “NGVWVIGEQREGKINPVTIELIGEGRKLADQLGKELAVVIAGYEVEKEVKELLHYSVDKVYYINDPLLKDFTTDGYAISIANLIERKKPEVVLVGATSIGRDIAPRIAGKVGTGLTADCTKLEIDSTDNKLLQTRPAFGGNLMATIVCPKNRPQMSTVRPGVMAKAVRNESETGILEVVTPELTEKMIRTRLVEILPQEKKSVN”, the protein production entry is on record as “not failed”.

In the case of “NGYTMQRDNQKTLAVYMFEEINRDVEYLSGRLSEKELKDKYRYYGRGYVRITDKDGQVITYEDGSVQDKTVFLTNEGANKLGWKLEFLIDEKMFEEEILEKQN”, the protein production result is recorded as “not failed”.
